Assay [1] has as its target T1, human CD3E (human, UniProt P07766 23-126, limits assumed).
T1 construct: Captured on chips carrying anti-histidine antibodies, 'using the same method' as the His-tagged CD19
The experiment in a line: SPR (BIAcore); human CD3E captured on anti-His antibody chip, antibody at 5 concentrations. The procedure:
(§1) Binding affinity for human CD3E or human CD19 of the CD3×CD19 bispecific antibody was tested by BIAcore, and Kₐ, Kd and KD values of the antibody were calculated based on the results. His-tagged human CD19 was used as ligand and captured on chips conjugated with anti-histine antibodies. Candidate molecules in five different concentrations were analyzed for their affinity for CD19. Affinity for human CD3E was examined using the same method.
(In SPR one partner is held on a chip, and binding of the other changes the refractive index at the surface.)

Assay [2] addresses T2, human CD19 (His-tagged) (human, UniProt P15391 20-291).
T2 construct: Captured on chips carrying anti-histidine antibodies
T2 sequence (looked up): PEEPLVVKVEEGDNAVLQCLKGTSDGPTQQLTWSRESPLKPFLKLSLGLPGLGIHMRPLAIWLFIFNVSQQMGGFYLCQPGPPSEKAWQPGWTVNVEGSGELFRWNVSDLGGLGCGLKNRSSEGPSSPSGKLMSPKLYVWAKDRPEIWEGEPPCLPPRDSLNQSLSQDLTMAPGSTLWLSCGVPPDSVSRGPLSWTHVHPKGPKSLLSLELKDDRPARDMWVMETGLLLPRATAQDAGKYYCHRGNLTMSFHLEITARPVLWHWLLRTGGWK
Briefly: SPR (BIAcore); His-tagged human CD19 captured on anti-His antibody chip, antibody at 5 concentrations. Here is the method:
as §1

Assay [3] has as its target T2, human CD19 (His-tagged). The experiment in a line: SPR (BIAcore); human CD19 captured on anti-His antibody chip, antibody at 5 concentrations. The procedure:
(§2) Binding affinity for human CD3E or human CD19 of the CD3×CD19×CD8 tri-specific antibody was tested by BIAcore. Kₐ, Kd and KD were calculated from the experimental results and used to evaluate affinity of the antibodies for human CD3E and CD19. CD3E and CD19 molecules as ligands were immobilized to chips conjugated with anti-histine antibodies. Antibody molecules in five different concentrations were analyzed for their affinity for CD19. Affinity for human CD3E was examined using the same method.

In assay [4] the target is T1, human CD3E. Briefly: SPR (BIAcore); human CD3E captured on anti-His antibody chip, antibody at 5 concentrations. The procedure:
as §2
The source holds these as a separate data set.

Like-named read-outs stand apart in the source and are kept apart here.

T1 sequence (P07766 23-126 limits assumed): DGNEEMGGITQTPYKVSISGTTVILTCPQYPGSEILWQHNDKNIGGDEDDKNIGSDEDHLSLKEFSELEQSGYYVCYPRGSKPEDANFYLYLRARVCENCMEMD

B1: Antibody #63, DICAD CD19×CD3 (1:1) bispecific (bispecific antibody)
chain 1: EIVLTQSPATLSVTPGERATLSCSASSSVSYMHWYQKKPGQAPRLLIYDTSKLASGIPARFSGSGSGTDFTLTISSLEPEDFAVYYCFQGSVYPFTFGCGTKLEIKRTVAAEVQLVESGGGLVQPGGSLRLSCAASGFTFNTYAMNWVRKAPGKGLEWVGRIRSKYNNYATYYADSVDKGRFTISRDDSKNSLYLQMNSLKTEDTAVYYCVRHGNFGNSYVSWFAYWGQGTLVTVSS
chain 2: EAVVTQEPSLTVSPGGTVTLTCRSSTGAVTTSNYANWVQDKPGQAPRGLIGGTNKRAPWTPARFSGSLLGGKAALTITGAQPEDEAGYYCALWYSNLWVFGGGTKLTVLRTVAAQVQLQESGPGLVKPSQTLSLTCTVSGGSISTSGMGVGWIRDHPGKCLEWIGHIWWDDDKRYNPALKSRVTISVDTSKNQFSLKLSSVTAADTAVYYCARMELWSYYFDYWGQGTTLTVSSASEPKSDKTHTCPPCPAPPVAGGPSVPLPPPKPKDTLMISRTPEVTCVVVDVSQEDPEVKFNWYVDGVGVHNAKTKPREEQFNSTYRVVSVLTVLHQDWLNGKEYKCKVSNKGLPSSIEKTISKAKGQPREPQVYTLPPCRDELTKNQVSLWCLVKGFYPSDIAVEWESNGQPENNYKTTPPVLDSDGSFFLYSKLTVDKSRWQQGNVFSCSVMHEALHNHYTQKSLSLSPGK
chain 3: DKTHTCPPCPAPPVAGGPSVFLFPPKPKDTLMISRTPEVTCVVVDVSQEDPEVKFNWYVDGVEVHNAKTKPREEQFNSTYRVVSVLTVLHQDWLNGKEYKCKVSNKGLPSSIEKTISKAKGQPREPQVCTLPPSRDELTKNQVSLSCAVKGFYPSDIAVEWESNGQPENNYKTTPPVLDSDGSFFLVSKLTVDKSRWQQGNVFSCSVMHEALHNRFTQKSLSLSPGK
notes: also called 063; #63-CD3×CD19 bispecific
As a reminder, the Kd is the equilibrium constant for the complex coming apart. Higher therefore signals a looser complex. As a reminder, the koff is the first-order rate constant of dissociation. Read a high koff as a short-lived complex. The kon is a measure of how fast the partners come together. Higher therefore signals faster complex formation. As for B1, in the assay with human CD3E [1], the Kd was 31.4 nM, the koff was found to be 0.0153 s⁻¹ and the kon amounted to 488000 M⁻¹ s⁻¹. In addition, in the assay with human CD19 (His-tagged) [2], the Kd came to 1.83 nM, the koff is 0.000669 s⁻¹ and the kon is 365000 M⁻¹ s⁻¹.

B2: Antibody #55, CD3×CD19×CD8 tri-specific antibody (other)
chain 1: EIVLTQSPATLSVTPGERATLSCSASSSVSYMHWYQKKPGQAPRLLIYDTSKLASGIPARFSGSGSGTDFTLTISSLEPEDFAVYYCFQGSVYPFTFGCGTKLEIKRTVAAEVQLVESGGGLVQPGGSLRLSCAASGFTFNTYAMNWVRKAPGKGLEWVGRIRSKYNNYATYYADSVDKGRFTISRDDSKNSLYLQMNSLKTEDTAVYYCVRHGNFGNSYVSWFAYWGQGTLVTVSS
chain 2: EAVVTQEPSLTVSPGGTVTLTCRSSTGAVTTSNYANWVQDKPGQAPRGLIGGTNKRAPWTPARFSGSLLGGKAALTITGAQPEDEAGYYCALWYSNLWVFGGGTKLTVLRTVAAQVQLQESGPGLVKPSQTLSLTCTVSGGSISTSGMGVGWIRDHPGKCLEWIGHIWWDDDKRYNPALKSRVTISVDTSKNQFSLKLSSVTAADTAVYYCARMELWSYYFDYWGQGTTLTVSSASEPKSDKTHTCPPCPAPPVAGGPSVPLPPPKPKDTLMISRTPEVTCVVVDVSQEDPEVKFNWYVDGVGVHNAKTKPREEQFNSTYRVVSVLTVLHQDWLNGKEYKCKVSNKGLPSSIEKTISKAKGQPREPQVYTLPPCRDELTKNQVSLWCLVKGFYPSDIAVEWESNGQPENNYKTTPPVLDSDGSFFLYSKLTVDKSRWQQGNVFSCSVMHEALHNHYTQKSLSLSPGK
heavy: QVQLVESGGGVVQPGRSLRLSCAASGPTFSDFGMNWVRKAPGKGLEWVALIYYDGSNKFYADSVKGRFTISRDNSKNTLYLQMNSLRAEDTAVYYCAKPHYDGYYHFFDSWGQGTLVTVSSASTKGPSVFPLAPGSSKSTSGTAALGCLVKDYFPEPVTVSWNSGALTSGVHTFPAVLQSSGLYSLSSVVTVPSSSLGTQTYICNVNHKPSNTKVDKKVEPKSCDKTHTCPPCPAPPVAGGPSVFLFPPKPKDTLMISRTPEVTCVVVDVSQEDPEVKFNWYVDGVEVHNAKTKPREEQFNSTYRVVSVLTVLHQDWLNGKEYKCKVSNKGLPSSIEKTISKAKGQPREPQVCTLPPSRDELTKNQVSLSCAVKGFYPSDIAVEWESNGQPENNYKTTPPVLDSDGSFFLVSKLTVDKSRWQQGNVFSCSVMHEALHNRFTQKSLSLSPGK
light: not shown
notes: Tri-specific antibody of four chains
As for B2, the values for the Kd with human CD19 (His-tagged) [3] and with human CD3E [4] were 8.63 nM and 31.3 nM, respectively.

The record behind these values is patent US20210102001A1 (CHIMAGEN BIOSCIENCES, published 2021).
